Results on seven molecules are retold here after article PMC4997359 (Scientific Reports, 2016).

Assay [1] addresses H2A–H2BT112C-Alexa 488 dimer (UniProt P06897). The experiment in a line: other fluorescence titration; labelled H2A–H2BT112C-Alexa 488 (0.1–10 nM) titrated with increasing NP (pentamer); 150 mM NaCl, 20 mM Tris-HCl, pH 7.6, 1 mM DTT, 0.1 mg/ml BSA; apparent Kd; ligand-depleted model with 5 sites per NP pentamer.
For assay [2] the target is unchanged. The experiment in a line: other fluorescence titration; saturation stoichiometry: labelled histone dimers at 10 times the apparent Kd titrated with NP; molar ratio at the intersection of the linear phase with the plateau; 150 mM NaCl, 20 mM Tris-HCl, pH 7.6, 1 mM DTT, 0.1 mg/ml BSA.
In assay [3] the target is H3C110E-H4T71C-Alexa 488 (predominantly dimeric H3-H4 variant). The experiment in a line: other fluorescence titration; labelled H3-H4 (H3C110E-H4T71C or H3C110A-H4T71C, Alexa 488; 0.1–10 nM) titrated with increasing NP (pentamer); 150 mM NaCl, 20 mM Tris-HCl, pH 7.6, 1 mM DTT, 0.1 mg/ml BSA; apparent Kd; ligand-depleted model with 2 sites per NP pentamer.
For assay [4] the target is unchanged. The experiment in a line: other fluorescence titration; saturation stoichiometry: labelled histone dimers at 10 times the apparent Kd titrated with NP; molar ratio at the intersection of the linear phase with the plateau; 150 mM NaCl, 20 mM Tris-HCl, pH 7.6, 1 mM DTT, 0.1 mg/ml BSA.
For assay [5], the target named is cross-linked H3C110AK115C-H4T71C-Alexa 488 tetramer. The experiment in a line: other fluorescence titration; cross-linked H3C110AK115C-H4T71C-Alexa 488 titrated with increasing NP (pentamer); 150 mM NaCl, 20 mM Tris-HCl, pH 7.6, 1 mM DTT, 1% glycerol, 0.05% Tween 20; apparent Kd; ligand-depleted model, 1/1 NP pentamer/histone tetramer.
Assay [6] has the same target. The experiment in a line: other fluorescence titration; saturation stoichiometry: cross-linked H3C110AK115C-H4T71C-Alexa 488 at 10 times the apparent Kd titrated with NP; 150 mM NaCl, 20 mM Tris-HCl, pH 7.6, 1 mM DTT, 1% glycerol, 0.05% Tween 20.
Assay [7] has as its target full-length recombinant nucleoplasmin (rNP) (X. laevis) (UniProt P05221). The experiment in a line: other fluorescence titration; competition: preformed NP/H2A–H2BT112C-Alexa 488 complexes (eNP 0.1 nM/histone 1 nM; rNP 0.5 nM/histone 5 nM) titrated with unlabelled H1 or H5; EC50 converted by the Cheng-Prusoff equation; apparent Kd.
Assay [8] has as its target egg nucleoplasmin (eNP), native NP from Xenopus laevis eggs (X. laevis) (UniProt P05221). Described as above.
The target of assay [9] is T1, egg nucleoplasmin (eNP), native NP from Xenopus laevis eggs (X. laevis, UniProt P05221 1-200, natural post-translational modifications, in particular phosphorylation (hyperphosphorylated); sites not printed in the text (circles in Figure 1A)).
T1 construct: nucleoplasmin (NPM2), Xenopus laevis, 22 kDa subunit, residues 1-200 (core 1-120, tail 121-200); Homopentamer; also called NPM2; natural NP
The description is as above. The settings on record: both partners purified.

For assay [10], the target named is T2, full-length recombinant nucleoplasmin (rNP) (X. laevis, UniProt P05221 1-200).
T2 construct: nucleoplasmin (NPM2), Xenopus laevis, full length recombinant, non-phosphorylated; also called recombinant NP
Described as above. The settings on record: both partners purified.

With “oocyte nucleoplasmin (oNP), NP isolated from X. laevis oocytes (from UniProt P05221 1-200) (natural protein)”, the Kd in [1] amounted to 0.11 nM; in [3] it was 0.09 nM. Besides, the stoichiometry N (H2A–H2B dimers per NP pentamer) in assay [2] is 3.

In the case of “egg nucleoplasmin (eNP), native NP from Xenopus laevis eggs (from UniProt P05221 1-200) (natural protein)”, the Kd in assay [1] was 0.06 nM; in assay [3], 0.05 nM; in assay [5] it was 1.1 nM. Further, in assay [4], the stoichiometry N (H3-H4 dimers per NP pentamer) was determined as 2. Moreover, the stoichiometry N (H2A–H2B dimers per NP pentamer) in [2] was 5. Further, in [6], the stoichiometry N (cross-linked tetramer per NP pentamer) came out at 1.

As for “rNPΔ120–200, recombinant nucleoplasmin core lacking the whole C-terminal domain (from UniProt P05221 1-119) (domain or fragment)”, the Kd was 11 nM in [1] and 16000 nM in assay [3].

Turning to “full-length recombinant nucleoplasmin (rNP) (from UniProt P05221 1-200) (natural protein)”, the values for the Kd in assay [1], in assay [3] and in assay [5] were 7 nM, 3 nM and 2.1 nM, respectively. In assay [2], the stoichiometry N (H2A–H2B dimers per NP pentamer) is 2. For the same molecule, in assay [6], the stoichiometry N (cross-linked tetramer per NP pentamer) came to 1.

For the molecule “linker histone H1 from chicken erythrocyte chromatin (from UniProt P09987 1-218) (natural protein)”, the Kd in assay [7] is 1.7 nM; in assay [8], 0.07 nM.

In the case of “rNPΔ150–200, recombinant nucleoplasmin lacking the last 50 residues (from UniProt P05221 1-149) (domain or fragment)”, the results for the Kd in assay [1] and in assay [3] were 0.12 nM and 0.05 nM, respectively. In addition, the stoichiometry N (H2A–H2B dimers per NP pentamer) in assay [2] was determined as 5.

B1: linker histone H5 from chicken erythrocyte chromatin (natural protein, UniProt P02259 1-190, looked up)
chain: MTESLVLSPAPAKPKRVKASRRSASHPTYSEMIAAAIRAEKSRGGSSRQSIQKYIKSHYKVGHNADLQIKLSIRRLLAAGVLKQTKGVGASGSFRLAKSDKAKRSPGKKKKAVRRSTSPKKAARPRKARSPAKKPKATARKARKKSRASPKKAKKPKTVKAKSRKASKAKKVKRSKPRAKSGARKSPKKK
notes: histone H5, chicken erythrocytes; Unlabelled
B1: the Kd was 0.03 ± 0.006 nM in assay [9] and 0.7 ± 0.2 nM in assay [10].
